From patent publication US20160083466A1 (Regeneron, published 2016)

T1: rat IL-25 expressed with a C-terminal myc-myc-hexahistidine tag (rat)
T1 construct: also called Rat IL-25-MMH
T1 chain: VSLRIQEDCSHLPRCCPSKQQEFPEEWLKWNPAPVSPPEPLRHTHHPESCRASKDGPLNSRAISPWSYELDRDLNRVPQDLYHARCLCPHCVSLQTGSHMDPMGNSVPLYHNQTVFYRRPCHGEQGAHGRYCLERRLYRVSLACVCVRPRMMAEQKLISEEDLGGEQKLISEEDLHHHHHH

T2: monkey IL-25 expressed with a C-terminal myc-myc-hexahistidine tag (M. fascicularis (cynomolgus monkey))
T2 construct: also called Monkey IL-25-MMH; MfIL-25-MMH
T2 chain: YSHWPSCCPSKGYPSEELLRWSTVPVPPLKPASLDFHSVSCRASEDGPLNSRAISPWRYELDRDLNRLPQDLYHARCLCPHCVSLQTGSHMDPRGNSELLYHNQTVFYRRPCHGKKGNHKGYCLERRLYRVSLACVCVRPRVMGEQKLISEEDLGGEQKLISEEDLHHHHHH

T3: human IL-25 expressed with a C-terminal myc-myc-hexahistidine tag (human)
T3 chain: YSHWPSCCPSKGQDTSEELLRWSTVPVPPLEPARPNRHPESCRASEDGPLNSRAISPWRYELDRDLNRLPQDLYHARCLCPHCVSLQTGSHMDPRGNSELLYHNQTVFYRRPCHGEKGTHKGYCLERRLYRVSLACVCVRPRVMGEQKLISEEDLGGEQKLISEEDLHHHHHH

T4: mouse IL-25 expressed with a C-terminal myc-myc-hexahistidine tag (mouse)
T4 construct: also called Mouse IL-25-MMH; mIL-25-MMH
T4 chain: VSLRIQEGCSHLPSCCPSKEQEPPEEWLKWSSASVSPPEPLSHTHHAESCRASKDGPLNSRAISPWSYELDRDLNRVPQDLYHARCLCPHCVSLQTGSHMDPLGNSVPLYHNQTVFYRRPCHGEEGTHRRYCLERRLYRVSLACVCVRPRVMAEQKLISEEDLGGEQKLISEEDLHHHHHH

B1: H4H10861P (antibody, human IgG4, V domains shown)
VH: QVQLQESGPGLVKPSETLSLTCTVSGASISNYYWSWIRQPPGKGLEWIGYIFYSGNTNYNPSLKSRVTISVDTSKNQFSLKLSSVTAADTAVYYCARVRFSDYELNWFDPWGQGTLVTVSS
VL: DIVMTQSPDSLAVFLGERATINCRSSQSVFLGSNNKNYLAWYQQKPGQPPKLLIYWASSRESGVPDRFSGSGSGTDFTLTINSLQAEDVAVYYCQQYFITPLTFGGGTKVEIK
notes: H4H prefix = human IgG4 Fc
B2: H4H10883P (antibody, human IgG4, V domains shown)
VH: QVQLQESGPGLVKSSETLSLTCTVSGGSISSYYWSWIRQPPGKGLEWIGFIYYSGSTNYNPSLKSRVTFSVDTSKNHFSLKLNSVTATDTAVYYCARHYFDSGTYELGPFDYWGQGTLVTVSS
VL: DIVMTQSPDSLAVSLGERATINCKSSQNILLTSSNKNYLTWYQQKPGQPPKLLIYWASIRESGVPDRFSGSGSGTDFTLTISSLQAEDVALYFCQQYYITPFTFGPGTKVDIK
notes: H4H prefix = human IgG4 Fc
B3: H4H10903P (antibody, human IgG4, V domains shown)
VH: QVQLQESGPGLVKPSETLSLTCTVSGGSINSYSWTWIRQPPGKGLEWIGNIYNSENTNYNPSLKSRVTISVDTSKSQVSLKLNSVTAADTAVYYCARTYNWNYEIGAMGVWGQGTTVTVSS
VL: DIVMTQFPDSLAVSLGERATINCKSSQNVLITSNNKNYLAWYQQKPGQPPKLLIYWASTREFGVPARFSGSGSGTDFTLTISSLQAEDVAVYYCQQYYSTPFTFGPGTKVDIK
notes: H4H prefix = human IgG4 Fc
B4: H4H10862P (antibody, human IgG4, V domains shown)
VH: QVQLQESGPGLVKPSETLSLTCTVSGGSISSYFWSWIRQAPGKGLEWIGFIDYSGSTNYNPSLKSRVTISVDTSKNQFSLKLNSVTAADTAVYYCARQEIINFELNWFDPWGQGTLVTVSS
VL: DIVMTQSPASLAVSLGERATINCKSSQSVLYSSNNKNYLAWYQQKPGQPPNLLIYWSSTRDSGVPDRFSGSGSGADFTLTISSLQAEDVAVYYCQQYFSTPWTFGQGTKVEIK
notes: H4H prefix = human IgG4 Fc
B5: H4H10901P (antibody, human IgG4, V domains shown)
VH: QLQLQESGPGLVRPSETLSLTCSVSSGSIRSSNYYWGWIRQPPGKGLEWIGNIYYSGNTFYNPSLKGRVTISVDTSKNQFSLKLSSVTATDTAVYYCARQGYSDYELNWFDPWGQGTLVTVSS
VL: DIVMTQSPDSLVLSLGERATFNCKSSQSVLDSSNNKNYLAWYQQKPGQPPKLLIYWASTRESGVPDRFSGSGSGTDFSLTISSLQAEDVALYYCQQFYNSPWTFGQGTKVEIK
notes: H4H prefix = human IgG4 Fc
B6: H2aM11008N (antibody, V domains shown)
VH: QVQLQESGPGLVKPSETLSLTCTVSGGSISSHYWSWIRQPPGKGLEWIGFIYYSGSTNFNPSLKSRVTISIDTSKNQFSLKLSSVTAADTAVYYCARHDYNDYELNYFDLWGRGTLASVSS
VL: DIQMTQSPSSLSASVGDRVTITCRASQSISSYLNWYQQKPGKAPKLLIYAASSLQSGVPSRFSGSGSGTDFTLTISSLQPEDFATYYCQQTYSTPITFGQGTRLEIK
notes: also called H2M11008N
B7: H4H10907P (antibody, human IgG4, V domains shown)
VH: EVQLVESGGGLVQPGGSLRLSCAASGFTFSNYDIHWVRQVPGKGLEWISTIGSAGDTFYPGSVKGRFTISRENAKNSLYLQMNSLRAGDSAVYYCARGDNWNYVSWFFDLWGRGTLVTVSS
VL: DIQLTQSPSFLSTSVGDRVTITCWASQDISSFLAWYQQKPGKAPKLLIYAASVLQSGVPSRFSGSGSGTEFTLTISSLQPEDFATYYCQQVNSYPITFGQGTRLEIK
notes: H4H prefix = human IgG4 Fc
B8: H4H10906P (antibody, human IgG4, V domains shown)
VH: QVQLQESGPGLVKPSETLSLTCTVSGGSISSYYWSWIRQPPGKGLEWIGFIYYSGSTNYNPSLKSRVTISVDTSKNQFSLKLSSVTAADTAVYYCARHDSDYELYGMDVWGQGTTVTVSS
VL: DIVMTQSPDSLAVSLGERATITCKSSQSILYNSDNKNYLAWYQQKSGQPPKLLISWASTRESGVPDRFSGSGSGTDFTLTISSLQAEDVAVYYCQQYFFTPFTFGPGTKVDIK
notes: H4H prefix = human IgG4 Fc

Biological target: T1, rat IL-25 expressed with a C-terminal …
Test: SPR Biacore, antibody captured, 25C;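 on 100 nM Rat IL-25-MMH Bound (RU): purified anti-IL-25 antibodies were tested by real-time surface plasmon resonance on a Biacore 4000, with rate constants obtained from sensorgram fits to a 1:1 binding model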
Protocol: (§1) Equilibrium dissociation constants (KD values) for IL-25 binding to purified anti-IL-25 antibodies were determined using a real-time surface plasmon resonance biosensor assay on a Biacore 4000 instrument (GE Healthcare). […] All the IL-25 reagents were expressed with a C-terminal myc-myc-hexahistidine tag (referred to herein as “IL-25-MMH”). […] Kinetic association (kₐ) and dissociation (kd) rate constants were determined by fitting the real-time sensorgrams to a 1:1 binding model using Scrubber 2.0c curve fitting software.

Row | 100 nM Rat IL-25-MMH Bound (RU) | binding result | Kd [nM] | koff [s⁻¹] | kon [M⁻¹ s⁻¹] | t½ [s] | Binder
1 | 0 | no binding (tested: 100 nM) |  |  |  |  | B1
2 | 0 |  |  |  |  |  | B2
3 | 1 | no binding (tested: 100 nM) |  |  |  |  | B3
4 | 1 | no binding (tested: 100 nM) |  |  |  |  | B4
5 | 0 | no binding (tested: 100 nM) |  |  |  |  | B5
6 | 0 | no binding (tested: 100 nM) |  |  |  |  | B6
7 | 10 |  | 66.9 | 0.0147 | 220000 | 48 | B7
8 | 2 | no binding (tested: 100 nM) |  |  |  |  | B8

Biological target: T1, rat IL-25 expressed with a C-terminal …
Test: SPR Biacore, antibody captured, 37C;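 on 100 nM Monkey IL-25-MMH Bound (RU): biacore 4000 surface plasmon resonance biosensor measuring binding of IL-25-MMH to purified anti-IL-25 antibodies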;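 on 100 nM Mouse IL-25-MMH Bound (RU): Real-time sensorgrams of IL-25-MMH binding to purified anti-IL-25 antibodies, rate constants obtained by fitting a 1:1 binding model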
Protocol: as §1

Row | 100 nM Rat IL-25-MMH Bound (RU) | Kd [nM] | koff [s⁻¹] | kon [M⁻¹ s⁻¹] | t½ [s] | Binder
9 | 2 |  |  |  |  | B1
10 | 0 |  |  |  |  | B2
11 | 2 |  |  |  |  | B3
12 | 1 |  |  |  |  | B4
13 | 1 |  |  |  |  | B5
14 | 3 |  |  |  |  | B6
15 | 8 | 85.4 | 0.0204 | 238000 | 36 | B7
16 | 3 |  |  |  |  | B8

Biological target: T2, monkey IL-25 expressed with a …
Test: SPR Biacore, antibody captured, 37C;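 on 100 nM Monkey IL-25-MMH Bound (RU): biacore 4000 surface plasmon resonance biosensor measuring binding of IL-25-MMH to purified anti-IL-25 antibodies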;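 on 100 nM Mouse IL-25-MMH Bound (RU): Real-time sensorgrams of IL-25-MMH binding to purified anti-IL-25 antibodies, rate constants obtained by fitting a 1:1 binding model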
Protocol: as §1

Row | 100 nM Monkey IL-25-MMH Bound (RU) | Kd [nM] | koff [s⁻¹] | kon [M⁻¹ s⁻¹] | t½ [h] | Binder
17 | 61 | 0.0236 | 7.14e-05 | 3.03e+06 | 2.7 | B1
18 | 72 | 0.0239 | 4.18e-05 | 1.75e+06 | 4.6 | B2
19 | 66 | 0.0374 | 6.59e-05 | 1.76e+06 | 2.92 | B3
20 | 70 | 0.0589 | 0.000172 | 2.93e+06 | 1.12 | B4
21 | 64 | 0.0464 | 0.000165 | 3.55e+06 | 1.17 | B5
22 | 50 | 0.0671 | 0.000101 | 1.51e+06 | 1.9 | B7
23 | 73 | 0.0431 | 0.00013 | 3.01e+06 | 1.48 | B8

Biological target: T3, human IL-25 expressed with a C-terminal …
Test: cell-based or functional assay

Row | IC50, luciferase reporter cells, 5 pM hIL-25-MMH [M] | IC50, luciferase reporter cells, 5 pM hIL-25-MMH (second assay day) [M] | Binder
24 | 6.3e-11 |  | B1
25 | 1.4e-10 |  | B2
26 | 1.4e-10 |  | B3
27 | 8.4e-11 |  | B4
28 | 5.6e-11 |  | B5
29 | 1.8e-09 |  | B6
30 | 2.2e-10 |  | B7
31 |  | 2.7e-11 | B8

Biological target: T2, monkey IL-25 expressed with a …
Test: cell-based or functional assay

Row | IC50, luciferase reporter cells, 12 pM MfIL-25-MMH [M] | Binder
32 | 3.7e-11 | B1
33 | 3.9e-11 | B2
34 | 6e-11 | B3
35 | 3.3e-11 | B4
36 | 3.8e-11 | B5
37 | 1.4e-10 | B7
38 | 4.7e-11 | B8

Biological target: T3, human IL-25 expressed with a C-terminal …
Test: competition ELISA, 2 nM hIL-25-MMH binding to coated hIL-17RB-hFc; (*) below theoretical bottom of the assay
Protocol: (§2) Data analysis was performed using a sigmoidal dose-response model within Prism™ software (GraphPad). […] The absorbance values of the wells containing the highest concentration for each antibody were used to determine the percent maximum blockade.

Row | IC50 [nM] | Binder
39 | 0.2 | B1
40 | 0.2 | B2
41 | 0.24 | B3
42 | 0.24 | B4
43 | 0.23 | B5
44 | 0.43 | B6
45 | 0.55 | B7
46 | 0.14 | B8

Biological target: T3, human IL-25 expressed with a C-terminal …
Test: competition ELISA, 2 nM hIL-25-MMH binding to coated hIL-17RB-hFc
Protocol: as §2

Row | % Maximum blocking of 200 nM antibody [%] | Binder
47 | 92 | B1
48 | 93 | B2
49 | 91 | B3
50 | 89 | B4
51 | 91 | B5
52 | 98 | B6
53 | 87 | B7
54 | 89 | B8

Biological target: T4, mouse IL-25 expressed with a C-terminal …
Test: SPR Biacore, antibody captured, 25C;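 on 100 nM Rat IL-25-MMH Bound (RU): purified anti-IL-25 antibodies were tested by real-time surface plasmon resonance on a Biacore 4000, with rate constants obtained from sensorgram fits to a 1:1 binding model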

Row | 100 nM Mouse IL-25-MMH Bound (RU) | binding result | Kd [nM] | koff [s⁻¹] | kon [M⁻¹ s⁻¹] | t½ [min] | Binder
55 | 0 | no binding (tested: 100 nM) |  |  |  |  | B1
56 | 0 |  |  |  |  |  | B2
57 | 0 | no binding (tested: 100 nM) |  |  |  |  | B3
58 | 0 | no binding (tested: 100 nM) |  |  |  |  | B4
59 | 1 | no binding (tested: 100 nM) |  |  |  |  | B5
60 | -1 |  |  |  |  |  | B6
61 | 10 |  | 58.7 | 0.0115 | 196000 | 1 | B7
62 | 1 | no binding (tested: 100 nM) |  |  |  |  | B8

Biological target: T4, mouse IL-25 expressed with a C-terminal …
Test: SPR Biacore, antibody captured, 37C;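 on 100 nM Monkey IL-25-MMH Bound (RU): biacore 4000 surface plasmon resonance biosensor measuring binding of IL-25-MMH to purified anti-IL-25 antibodies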;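 on 100 nM Mouse IL-25-MMH Bound (RU): Real-time sensorgrams of IL-25-MMH binding to purified anti-IL-25 antibodies, rate constants obtained by fitting a 1:1 binding model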

Row | 100 nM Mouse IL-25-MMH Bound (RU) | Kd [nM] | koff [s⁻¹] | kon [M⁻¹ s⁻¹] | t½ [s] | Binder
63 | 2 |  |  |  |  | B1
64 | 1 |  |  |  |  | B2
65 | 1 |  |  |  |  | B3
66 | 2 |  |  |  |  | B4
67 | 2 |  |  |  |  | B5
68 | 2 |  |  |  |  | B6
69 | 8 | 137 | 0.0376 | 275000 | 18 | B7
70 | 2 |  |  |  |  | B8

Biological target: T3, human IL-25 expressed with a C-terminal …
Test: BLI Octet, hIL-25-MMH captured on anti-Penta-His sensor, 25C
Protocol: Binding competition between anti-IL-25 monoclonal antibodies was determined using a real time, label-free bio-layer interferometry assay on an Octet QK384 biosensor (Pall ForteBio Corp.).
The biosensors were washed in HBST kinetics buffer in between every step of the experiment. The real-time binding response was monitored during the course of the experiment and the binding response at the end of every step was recorded.

Row | 50 ug/mL mAb-1 Binding (nm) | Binder
71 | 0.88 | B1
72 | 0.7 | B2
73 | 1.03 | B3
74 | 0.83 | B4
75 | 0.67 | B5
76 | 0.81 | B6
77 | 1.74 | B7
78 | 0.88 | B8
